The text below walks through data of the DeepSol protein solubility set.

This data set is described as follows: soluble on expression in E. coli; label from the status in PepcDB or PDB records.
As for “MGSDKIHHHHHHMSEVSKWPAINPFHWGYNGTVSHIVGENGSIKLHLKDNKEQVDFDEFANKYVPTLKNGAQFKLSPYLFTGILQTLYLGAADFSKKFPVFYGREIVKFSDGGVCTADWLIDSWKKDYEFDQSTTSFDKKKFDKDEKATHPEGWPRLQPRTRYLKDNELEELREVDLPLVVILHGLAGGSHEPIIRSLAENLSRSGRFQVVVLNTRGCARSKITTRNLFTAYHTMDIREFLQREKQRHPDRKLYAVGCSFGATMLANYLGEEGDKSPLSAAATLCNPWDLLLSAIRMSQDWWSRTLFSKNIAQFLTRTVQVNMGELGVPNGSLPDHPPTVKNPSFYMFTPENLIKAKSFKSTREFDEVYTAPALGFPNAMEYYKAASSINRVDTIRVPTLVINSRDDPVVGPDQPYSIVEKNPRILYCRTDLGGHLAYLDKDNNSWATKAIAEFFTKFDELVV”, the “soluble on expression in E. coli” value is “not soluble”. Turning to “MGSDKIHHHHHHMKLRSWEFYDRIARAYDSMYETPKWKLYHRLIGSFLEEYLKNPCRVLDLGGGTGKWSLFLQERGFEVVLVDPSKEMLEVAREKGVKNVVEAKAEDLPFPSGAFEAVLALGDVLSYVENKDKAFSEIRRVLVPDGLLIATVDNFYTFLQQMIEKDAWDQITRFLKTQTTSVGTTLFSFNSYAFKPEDLDSLEGFETVDIRGIGVMEYPDERISEREETIFRLEQELSRDRNIIWKADHIFFVLKKKRGA”, the “soluble on expression in E. coli” value is listed as “soluble”. In the case of “MRKIGLLFITIFCLLACKNNSSRISLEGEIKGLTNDTLYLYGTDALYDRIDTIYAEKGKFSYNLNIDSTVIDTLTTAVLLINGHVEYPVFLDKGNQITIKGNIDDLSYLDINGNEPNTSLSLFMKEQRGLGSASDKMMQEKAETFIRQHNSSLASVYLLDKYFVQTPQPDYIKIKEITEAMTGALLDRPYIENISDYIDQLEKVTVGKSAPYFSLPNEKGEKLSRSAERFRNRYLLLNFWASWCDPQPEANAELKRLNKEYKKNKNFAMLGISLDIDREAWETAIKKDTLSWDQVCDFTGLSSETAKQYAILTLPTNILLSPTGKILARDIQGEALTGKLKELLKTEEKKTGKSIR” it was “not soluble”; in that of “MSFRPEYKEYFKQGATARIYNGAFEDAGFYDEVDIKEFEYSREEKTFYYPCPCGDRFEISLEDLRNGEVVARCPSCSLIVCTVYEAEDLEKYL”, “not soluble”.

On to “MSKNERMVGISRRTLVKSTAIGSLALAAGGFSLPFTLRNAAAAVQQAREKVVWGACSVNCGSRCALRLHVKDNEVTWVETDNTGSDEYGNHQVRACLRGRSIRRRINHPDRLNYPMKRVGKRGEGKFERISWDEALDTIASSLKKTVEQYGNEAVYIQYSSGIVGGNMTRSSPSASAVKRLMNCYGGSLNQYGSYSTAQISCAMPYTYGSNDGNSTTDIENSKLVVMFGNNPAETRMSGGGITYLLEKAREKSNAKMIVIDPRYTDTAAGREDEWLPIRPGTDAALVAGIAWVLINENLVDQPFLDKYCVGYDEKTLPADAPKNGHYKAYILGEGDDKTAKTPQWASQITGIPEDRIIKLAREIGTAKPAYICQGWGPQRQANGELTARAIAMLPILTGNVGISGGNSGARESTYTITIERLPVLDNPVKTSISCFSWTDAIDHGPQMTAIRDGVRGKDKLDVPIKFIWNYAGNTLVNQHSDINKTHEILQDESKCEMIVVIENFMTSSAKYADILLPDLMTVEQEDIIPNDYAGNMGYLIFLQPVTSEKFERKPIYWILSEVAKRLGPDVYQKFTEGRTQEQWLQHLYAKMLAKDPALPSYDELKKMGIYKRKDPNGHFVAYKAFRDDPEANPLKTPSGKIEIYSSRLAEIARTWELEKDEVISPLPVYASTFEGWNSPERRTFPLQLFGFHYKSRTHSTYGNIDLLKAACRQEVWINPIDAQKRGIANGDMVRVFNHRGEVRLPAKVTPRILPGVSAMGQGAWHEANMSGDKIDHGGCVNTLTTLRPSPLAKGNPQHTNLVEIEKI”, for which the “soluble on expression in E. coli” value is reported as “soluble”.

With “GMWDETELGLYKVNEYVDARDTNMGAWFEAQVVRVTRKAPSRDEPCSSTSRPALEEDVIYHVKYDDYPENGVVQMNSRDVRARARTIIKWQDLEVGQVVMLNYNPDNPKERGFWYDAEISRKRETRTARELYANVVLGDDSLNDCRIIFVDEVFKIERPGE”, the “soluble on expression in E. coli” value is listed as “soluble”. The same measure for “MVVVEQIKSQKIHGCQILETVYKHSCGGLPPVRSALEKILAVCHGVMYKQLSAWMLHGLLLDQHEEFFIKQGPSSGNVSAQPEEDEEDLGIGGLTGKQLRELQDLRLIEEENMLAPSLKQFSLRVEILPSYIPVRVAEKILFVGESVQMFENQNVNLTRKGSILKNQEDTFAAELHRLKQQPLFSLVDFEQVVDRIRSTVAEHLWKLMVEESDLLGQLKIIKDFYLLGRGELFQAFIDTAQHMLKTPPTAVTEHDVNVAFQQSAHKVLLDDDNLLPLLHLTIEYHGKEHKADATQAREGPSRETSPREAPASGWAALGLSYKVQWPLHILFTPAVLEKNRQF”: “soluble”. In the case of “MSLQELPVPKPHQLKWHEAEMGAVFHYDLHVFDGIRYGQGNNRINPIEDYNIFNPTELNTDQWVQAAKAAGCKFAVLTATHETGFGLWQSDVNPYCLKAVKWRDGKGDIVRDFVNSCRKYGLQPGIYIGIRWNSLLGIHNFKAEGEGAFARNRQAWYKRLCEKMVTELCTRYGDLYMIWFDGGADDPRADGPDVEPIVNKYQPNCLFYHNIDRADFRWGGSETGTVEYPCWSTFPVPCSHHKRIESSIDQLELLKHGDKNGRYWVPAMADTPLRGANGRHEWFWEPDDENNIYPLNTLMDKYEKSVGRNATLILGLTPDPTGLIPAGDAQRLKEMGDEINRRFSSPIARISGQKKSLTLKLGKEQSVNYCIIQENIKNGERIRQYQIEAKVNGKWQTVCKGESVGHKRIEKFEPVEATALRLTVSESIALPDIINFSAYSVKEGHHHHHH” it was “soluble”; in that of “MNEIQKYIAANEPKIMEDLFSLIRIPSISALPEHHDDMLACAQRWAQLLLEAGVDEALVMPSKGNPIVFAQKIVDPNAKTVLVYAHYDVMPAEPLELWKSQPFEPEVRDGYIWARGADDDKGQSFIQVKAFEYLVKNELLKNNVKFIFEGEEEIGSPSLEAFCEEHKELLKADVILVSDTSMLGAELPSLTTGLRGLAYWEIEVTGPNRDLHSGHFGGAVANPINVLCEIISKVTDKDGRITVPGFYDDVEEVPQAEREMIAHIPFDEKKYKEAIGVKELFGEKGYSTLERNSCRPSFDVCGIWGGYTGEGSKTVLPSKAYAKVSCRLVAHQDHHKISQMFADYILQMAPDTVQVKVTPMHGGQGYVCPISLPAYQAAEKGFEIAFGKKPLAVRRGGSIPIISTFEQVLGTKTVLMGFGLESDAIHSPNENFSLDIFRKGIEAVIEFHQEYAKR”, “not soluble”. In the case of “SNAMKVINVDVAIIGTGTAGMGAYRAAKKHTDKVVLIEGGAYGTTCARVGCMPSKLLIAAADASYHASQTDLFGIQVDRISVNGKAVMKRIQTERDRFVGFVVESVESFDEQDKIRGFAKFLDEHTLQVDDHSQVIAKRIVIATGSRPNYPEFLAAAGSRLLTNDNLFELNDLPKSVAVFGPGVIGLELGQALSRLGVIVKVFGRSGSVANLQDEEMKRYAEKTFNEEFYFDAKARVISTIEKEDAVEVIYFDKSGQKTTESFQYVLAATGRKANVDKLGLENTSIELDKKNSPLFDELTLQTSVDHIFVAGDANNTLTLLHEAADDGKVAGTNAGAYPVIAQGQRRAPLSVVFTEPQVASVGLSLRQIEDLYADQDAANYVVGQVSFEGQGRSRVMGKNKGLLNVYADRTSGEFLGAEMFGPAAEHIGHLLAWARQQQMTVQAMLTMPFYHPVIEEGLRTALRDAQQKLAIEKHDMNEFIMTHDNAMKLVI” it was “soluble”; in that of “EKFRWFISSEGFLVIGGKDATTNEIVVRKYLEENDLYCHADIWGAPHVVIKDGQKAGEKTIFEACQFAVSMSRAWSEGLYSADAYWVYPNQVKKQAPSGEFLPK”, “not soluble”.

Take “MKAASYGVPFQSHFGLISTIRGNDGLPRVVVFFQSHFGLISTVKIVEVLEKDEALSIPFWSDFNCHLQMDQRIRLAFFQSHFGLISTGTLQTSGTNANFLSIPFWSDFNLELLKRIKKTKMLFQSHFGLISTRNMVWGRSELQRAIFQSHFGLISTQSSQLTMPVKMQTFNPILV”: the “soluble on expression in E. coli” value is recorded as “not soluble”.
